Test results as given in patent publication US20060142192A1 (ZymoGenetics, published 2006).

Experiments:
Assay in all cases: flow cytometry, biotinylated IL-17C (1 ug/ml) + streptavidin-PE on stably transfected BHK cells
human ZcytoR21x6 = target: T1, human ZcytoR21x6 (human, UniProt Q8NFR9 24-667)
T1 construct: also called hcytor21x6
T1 sequence: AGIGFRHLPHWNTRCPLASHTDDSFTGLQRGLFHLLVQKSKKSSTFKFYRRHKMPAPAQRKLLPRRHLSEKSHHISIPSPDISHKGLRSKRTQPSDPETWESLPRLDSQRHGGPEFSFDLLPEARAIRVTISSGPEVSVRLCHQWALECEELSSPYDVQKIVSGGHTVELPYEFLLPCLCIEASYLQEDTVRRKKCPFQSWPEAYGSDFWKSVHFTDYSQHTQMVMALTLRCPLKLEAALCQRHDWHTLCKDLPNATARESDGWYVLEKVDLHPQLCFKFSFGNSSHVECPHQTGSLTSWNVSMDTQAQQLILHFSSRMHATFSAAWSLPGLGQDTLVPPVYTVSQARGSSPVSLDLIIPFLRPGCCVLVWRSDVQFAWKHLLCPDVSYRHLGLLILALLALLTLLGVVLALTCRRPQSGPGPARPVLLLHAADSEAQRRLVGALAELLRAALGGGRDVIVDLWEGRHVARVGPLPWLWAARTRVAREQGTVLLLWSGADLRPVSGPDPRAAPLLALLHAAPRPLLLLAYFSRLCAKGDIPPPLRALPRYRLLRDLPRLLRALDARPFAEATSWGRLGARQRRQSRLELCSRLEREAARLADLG
Protocol: (§1) BHK cells stably transfected with human and mouse ZcytoR21 splice variants were plated and grown to confluency in T-75 flasks. Cells were lifted off using a non-protease reagent such as Versene (Invitrogen 15040-066), pelleted, and resuspended in a staining reagent (HBSS+1% BSA+0.1% NaAzide+10 mM HEPES) at 2×10e7 cells/ml and aliquoted to a 96-well Costar plate. IL-17C that has been labeled with biotin was independently added to cells at a concentration of 1 ug/ml. The cell/ligand mixture can be incubated for 1 hr at 4 degrees. The wells were washed 1× in staining reagent, and incubated in a secondary reagent containing staining reagent plus Streptavidin-PE (BD Pharmingen 554061) at a 1:100 ratio. The wells were incubated at 4° C. in the dark for 1 hr, followed by a 2× wash in staining media. The cells were then resuspended in a 1:1 mixture of staining media and Cytofix (BD Bioscience 554655) and incubated 10 minutes at RT. The cells were analysed by Flow Cytometry and by gating on the PE positive events for cells that bound IL-17C.

human ZcytoR21x13 = target: T2, human ZcytoR21x13 (human, UniProt Q8NFR9 24-667)
T2 construct: also called hcytor21x13
T2 sequence: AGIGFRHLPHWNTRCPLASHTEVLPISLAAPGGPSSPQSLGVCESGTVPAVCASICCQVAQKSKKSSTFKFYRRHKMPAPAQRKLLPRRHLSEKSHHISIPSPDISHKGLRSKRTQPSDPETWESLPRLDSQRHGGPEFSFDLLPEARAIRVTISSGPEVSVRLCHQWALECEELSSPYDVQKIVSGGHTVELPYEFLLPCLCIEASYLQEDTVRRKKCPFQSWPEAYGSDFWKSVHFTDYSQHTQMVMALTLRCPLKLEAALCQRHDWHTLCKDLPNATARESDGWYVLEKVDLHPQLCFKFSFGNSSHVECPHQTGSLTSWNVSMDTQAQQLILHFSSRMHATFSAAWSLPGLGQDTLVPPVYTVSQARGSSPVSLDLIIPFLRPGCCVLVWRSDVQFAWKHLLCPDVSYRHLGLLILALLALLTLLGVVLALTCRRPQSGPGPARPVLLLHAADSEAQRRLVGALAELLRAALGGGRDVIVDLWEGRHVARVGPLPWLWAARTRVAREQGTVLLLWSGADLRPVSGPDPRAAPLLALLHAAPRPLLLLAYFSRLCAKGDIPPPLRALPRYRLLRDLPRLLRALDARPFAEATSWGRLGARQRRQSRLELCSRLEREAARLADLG
Protocol: as §1

murine ZcytoR21x6 = target: T3, murine ZcytoR21x6 (mouse, UniProt Q8BH06 24-637)
T3 construct: also called mouse ZcytoR21x6; mcytor21x6
T3 sequence: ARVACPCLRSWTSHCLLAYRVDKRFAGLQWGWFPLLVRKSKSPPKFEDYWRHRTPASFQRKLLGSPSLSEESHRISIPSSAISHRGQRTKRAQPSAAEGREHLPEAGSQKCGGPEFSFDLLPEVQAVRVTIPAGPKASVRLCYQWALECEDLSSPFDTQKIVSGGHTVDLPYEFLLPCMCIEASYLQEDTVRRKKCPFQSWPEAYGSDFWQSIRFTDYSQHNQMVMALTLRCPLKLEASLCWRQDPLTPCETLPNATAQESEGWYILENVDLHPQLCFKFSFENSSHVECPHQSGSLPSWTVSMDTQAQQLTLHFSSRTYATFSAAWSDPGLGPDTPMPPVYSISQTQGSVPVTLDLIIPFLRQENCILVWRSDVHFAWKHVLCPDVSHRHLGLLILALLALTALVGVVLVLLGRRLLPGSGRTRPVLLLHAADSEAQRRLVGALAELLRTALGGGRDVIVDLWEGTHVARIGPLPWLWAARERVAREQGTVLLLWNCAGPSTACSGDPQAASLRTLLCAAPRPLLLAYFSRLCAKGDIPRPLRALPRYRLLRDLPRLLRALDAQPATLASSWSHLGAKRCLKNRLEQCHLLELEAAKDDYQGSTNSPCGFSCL
Protocol: as §1

Measured: binding result

B1: human IL-17C (ligand)
chain: HHDPSLRGHPHSHGTPHCYSAEELPLGQAPPHLLARGAKWGQALPVALVSSLEAASHRGRHERPSATTQCPVLRPEEVLEADTHQRSISPWRYRVDTDEDRYPQKLAFAECLCRGCIDARTGRETAALNSVRLLQSLLVLRRRPCSRDGSGLPTPGAFAFHTEFIHVPVGCTCVLPRSV
modifications: biotin label in the binding assays (sites not given); unlabelled in the signalling assays
notes: it is the last residue of the open reading frame as I know it; Recombinant forms made carried a C-terminal Glu-Glu tag (BHK) or His tag (293F); also called biotinylated human IL-17C; human IL-17C (A903G)
binds: all assays above
